Results on eight proteins are retold here after patent US11491212.

Sequences and labels used below:
B1: FIXa-K228N/K247N/N249S/R318Y/R338E/R403E/E410N (protein)
chain 1: not shown
chain 2: not shown
B2: FIXa-Y155F/R318Y/R338E/T343R/R403E/E410N (protein)
chain 1: not shown
chain 2: not shown
B3: FIXa-D104N/K106S/K228N/K247N/N249S/R318Y/R338E/R403E/E410N (protein)
chain 1: not shown
chain 2: not shown
B4: FIXa-K247N/N249S/N260S/R318Y/R338E/R403E/E410N (protein)
chain 1: not shown
chain 2: not shown
B5: FIXa-R318Y/R338E/R403E/E410N/T412V (protein)
chain 1: not shown
chain 2: not shown
B6: FIXa-R318Y/R338E/E410N/T412V (protein)
chain 1: not shown
chain 2: not shown
B7: FIXa-R318Y/R338E/R403E/E410N/T412A (protein)
chain 1: not shown
chain 2: not shown
B8: FIXa-R318Y/R338E/T343R/R403E/E410N (protein)
chain 1: not shown
chain 2: not shown

The target in one data set is Factor X (FX), P00742.
Chain of Factor X (FX), P00742 (P00742 whole entry, looked up): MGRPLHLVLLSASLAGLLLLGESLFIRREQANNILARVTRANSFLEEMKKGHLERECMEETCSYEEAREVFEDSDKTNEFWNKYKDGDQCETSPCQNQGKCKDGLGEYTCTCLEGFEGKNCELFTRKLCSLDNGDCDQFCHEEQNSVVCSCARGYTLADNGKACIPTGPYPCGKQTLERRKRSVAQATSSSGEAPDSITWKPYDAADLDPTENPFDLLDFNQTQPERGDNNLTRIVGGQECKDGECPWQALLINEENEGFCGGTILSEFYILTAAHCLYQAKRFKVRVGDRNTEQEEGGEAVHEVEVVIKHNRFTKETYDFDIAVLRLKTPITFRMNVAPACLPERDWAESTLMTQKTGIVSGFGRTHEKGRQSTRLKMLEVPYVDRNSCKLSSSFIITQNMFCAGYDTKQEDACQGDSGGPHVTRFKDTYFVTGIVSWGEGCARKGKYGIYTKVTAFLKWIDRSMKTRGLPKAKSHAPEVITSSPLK
Regarding B1, the “% of WT kcat/KM (against Catalyst Biosciences WT FIXa)” value is 352%; the KM was 0.0497 µM; the kcat/KM for activation of FX by FIXa in the Xase complex (FVIIIa, PC/PS vesicles, Ca2+), fluorogenic Spectrafluor FXa read-out came out at 1.6e+08 M⁻¹ s⁻¹.
Regarding B2, the KM was determined as 0.0272 µM and the kcat was 7.8 s⁻¹.
B3: the KM was found to be 0.0533 µM.
As to B4, the “% of WT kcat/KM (against Catalyst Biosciences WT FIXa), FX activation in the Xase complex” value (“% of WT kcat/KM … in the Xase complex” for short) is 217%; the KM worked out at 0.0474 µM; the KM (nM) for activation of FX by FIXa in the Xase complex (FVIIIa, PC/PS vesicles, Ca2+), fluorogenic Spectrafluor FXa assay is 62.2 nM; the kcat is 3.4 s⁻¹. For the same protein, the kcat/KM for FX activation by FIXa in the Xase complex (FVIIIa, PC/PS vesicles, Ca2+), indirect fluorogenic Spectrafluor FXa assay is 9.7e+07 M⁻¹ s⁻¹.
With B5, the KM amounted to 0.0483 µM and the kcat worked out at 7 s⁻¹.
Take B6: the “% of WT kcat/KM … in the Xase complex” value was determined as 536%; the KM amounted to 0.0236 µM; the kcat is 5.2 s⁻¹; the kcat/KM for FX activation by FIXa in the Xase complex (FVIIIa, PC/PS vesicles, Ca2+), indirect fluorogenic Spectrafluor FXa assay came out at 2.4e+08 M⁻¹ s⁻¹.
For B7, the KM amounted to 0.0344 µM and the kcat is 7.8 s⁻¹.
In the case of B8, the “% of WT kcat/KM … in the Xase complex” value was determined as 1217%; the KM turned out to be 0.0247 µM; the KM (nM) for activation of FX by FIXa in the Xase complex (FVIIIa, PC/PS vesicles, Ca2+), fluorogenic Spectrafluor FXa assay amounted to 22.3 nM; the kcat came to 9.7 s⁻¹. Moreover, the kcat/KM for FX activation by FIXa in the Xase complex (FVIIIa, PC/PS vesicles, Ca2+), indirect fluorogenic Spectrafluor FXa assay worked out at 5.4e+08 M⁻¹ s⁻¹.

For another data set, the target named is Factor X, P00742.
Chain of Factor X, P00742 (P00742 whole entry, looked up): as above
For the protein B1, the kcat is 7.1 s⁻¹.
For the protein B2, the kcat/KM was 3e+08 M⁻¹ s⁻¹.
On to B3, for which the kcat turned out to be 6.1 s⁻¹ and the kcat/KM was determined as 1.1e+08 M⁻¹ s⁻¹.
For the protein B4, the kcat/KM was found to be 6.7e+07 M⁻¹ s⁻¹.
For the protein B5, the kcat/KM was determined as 1.6e+08 M⁻¹ s⁻¹.
The same measure, in the same setting: the same measure for B6: 2.6e+08 M⁻¹ s⁻¹.
Still for that read-out and setting: the same measure for B7: 2.5e+08 M⁻¹ s⁻¹; for B8: 4.2e+08 M⁻¹ s⁻¹.

As usually defined, the KM is the substrate concentration at which the rate is half of its maximum. Broadly, the kcat is the number of substrate molecules converted per active site and unit of time at saturation. As usually defined, the kcat/KM is the turnover number divided by the Michaelis constant.
